Test results from patent US20090111753A1, “Nogo-A Polypeptide Fragments, Variant Nogo Receptor-1 Polypeptides, and Uses Thereof” (Yale University, priority 2004, published 2009).

B2: mouse NgR3 expressed on COS-7 cells (receptor, UniProt Q8K0S5 25-424, looked up)
chain: CPRDCVCYPAPMTVSCQAHNFAAIPEGIPEDSERIFLQNNRITFLQQGHFSPAMVTLWIYSNNITFIAPNTFEGFVHLEELDLGDNRQLRTLAPETFQGLVKLHALYLYKCGLSALPAGIFGGLHSLQYLYLQDNHIEYLQDDIFVDLVNLSHLFLHGNKLWSLGQGIFRGLVNLDRLLLHENQLQWVHHKAFHDLHRLTTLFLFNNSLTELQGDCLAPLVALEFLRLNGNAWDCGCRARSLWEWLRRFRGSSSAVPCATPELRQGQDLKLLRVEDFRNCTGPVSPHQIKSHTLTTSDRAARKEHHPSHGASRDKGHPHGHPPGSRSGYKKAGKNCTSHRNRNQISKVSSGKELTELQDYAPDYQHKFSFDIMPTARPKRKGKCARRTPIRAPSGVQQAS
notes: whole, on cells; tagged (anti-Myc or anti-His detection); tag not specified

Tests used:
[1] = target: B2; assay: AP fusion on COS-7 cells expressing mouse NgR3
Protocol: (§1) FIG. 3B. […] Conditioned media from transfected HEK293T cells containing 20 nM of indicated AP fusion protein were applied to COS-7 cells expressing mouse NgR1, human NgR2 or mouse NgR3 and bound AP was stained. Surface expression of NgR5 was detected using anti-Myc or anti-His antibodies. AP-AmNgA: AP fusion protein of Amino-Nogo fragment A. AP-AmNgB: AP fusion protein of Amino-Nogo fragment B.

[2] = target: T1, AP-fused Amino-Nogo fragment A (a.a. 181-864) (human, UniProt Q9NQC3 181-864); assay: AP fusion on COS-7 cells expressing mouse NgR3
T1 construct: AP put first by the name; also called AmNg A; AP-AmNgA; not shown: alkaline phosphatase (AP), vector pcAP6
T1 sequence: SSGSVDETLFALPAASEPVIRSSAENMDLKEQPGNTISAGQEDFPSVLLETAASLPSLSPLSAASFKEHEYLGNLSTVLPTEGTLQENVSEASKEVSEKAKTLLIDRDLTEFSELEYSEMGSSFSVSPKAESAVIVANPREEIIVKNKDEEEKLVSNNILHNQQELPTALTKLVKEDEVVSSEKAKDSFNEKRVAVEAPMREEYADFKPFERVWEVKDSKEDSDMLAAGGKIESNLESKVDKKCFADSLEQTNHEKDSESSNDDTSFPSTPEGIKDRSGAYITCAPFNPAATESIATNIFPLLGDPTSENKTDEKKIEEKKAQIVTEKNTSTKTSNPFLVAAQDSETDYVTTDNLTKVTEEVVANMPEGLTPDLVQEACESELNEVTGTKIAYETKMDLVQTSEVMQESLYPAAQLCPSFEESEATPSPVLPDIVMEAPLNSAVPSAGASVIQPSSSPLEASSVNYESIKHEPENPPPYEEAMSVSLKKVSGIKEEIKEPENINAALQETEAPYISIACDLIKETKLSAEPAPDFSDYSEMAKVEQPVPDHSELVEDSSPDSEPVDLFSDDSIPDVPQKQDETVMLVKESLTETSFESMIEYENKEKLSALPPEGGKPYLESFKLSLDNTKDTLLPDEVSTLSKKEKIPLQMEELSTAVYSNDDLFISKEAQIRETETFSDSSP
Protocol: as §1

[3] = target: T2, human NgR2 (Homo sapiens, UniProt Q86UN3); settings: expressed on the surface of COS-7 cells; Barton et al. 2003; cited from earlier work
T2 construct: expressed in transfected cells; host or cells: COS-7
T2 sequence (Q86UN3 47-390): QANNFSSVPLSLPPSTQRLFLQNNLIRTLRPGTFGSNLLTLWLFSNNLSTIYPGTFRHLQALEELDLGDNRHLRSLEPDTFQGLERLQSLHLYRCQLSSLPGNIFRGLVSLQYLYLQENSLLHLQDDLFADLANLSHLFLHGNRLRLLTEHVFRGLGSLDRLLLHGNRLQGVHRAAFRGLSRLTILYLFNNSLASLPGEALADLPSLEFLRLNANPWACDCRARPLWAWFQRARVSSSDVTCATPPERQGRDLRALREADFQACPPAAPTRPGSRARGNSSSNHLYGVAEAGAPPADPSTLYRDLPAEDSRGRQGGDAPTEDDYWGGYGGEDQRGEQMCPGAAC

[4] = target: T3, mouse NgR3 (Mus musculus, UniProt Q8K0S5); settings: expressed on the surface of COS-7 cells; Barton et al. 2003; cited from earlier work
T3 construct: expressed in transfected cells; host or cells: COS-7
T3 sequence (Q8K0S5 25-424): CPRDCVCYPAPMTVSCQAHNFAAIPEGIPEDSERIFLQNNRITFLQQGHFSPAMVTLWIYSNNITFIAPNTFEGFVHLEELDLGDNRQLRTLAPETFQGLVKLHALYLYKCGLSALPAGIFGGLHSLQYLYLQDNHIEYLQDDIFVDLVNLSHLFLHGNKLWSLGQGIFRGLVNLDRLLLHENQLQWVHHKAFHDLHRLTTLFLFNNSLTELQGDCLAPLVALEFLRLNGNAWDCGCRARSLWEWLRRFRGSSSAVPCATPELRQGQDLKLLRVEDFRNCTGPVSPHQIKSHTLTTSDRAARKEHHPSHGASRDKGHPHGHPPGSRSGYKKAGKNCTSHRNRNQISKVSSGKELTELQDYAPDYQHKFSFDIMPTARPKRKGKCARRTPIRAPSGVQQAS

B1: AP-fused Amino-Nogo fragment B (a.a. 622-1018) (ligand)
chain: SAVPSAGASVIQPSSSPLEASSVNYESIKHEPENPPPYEEAMSVSLKKVSGIKEEIKEPENINAALQETEAPYISIACDLIKETKLSAEPAPDFSDYSEMAKVEQPVPDHSELVEDSSPDSEPVDLFSDDSIPDVPQKQDETVMLVKESLTETSFESMIEYENKEKLSALPPEGGKPYLESFKLSLDNTKDTLLPDEVSTLSKKEKIPLQMEELSTAVYSNDDLFISKEAQIRETETFSDSSPIEIIDEFPTLISSKTDSFSKLAREYTDLEVSHKSEIANAPDGAGSLPCTELPHDLSLKNIQPKVEEKISFSDDFSKNGSATSKVLLLPPDVSALATQAEIESIVKPKVLVKEAEKKLPSDTEKEDRSPSAIFSAELSKTSVVDLLYWRDIKKTG
notes: also called AmNg B; AP-AmNgB; not shown: alkaline phosphatase (AP), vector pcAP6
Q: Does B1 bind [1]?
A: no binding (tested: 20 nM)

Q: Does B2 bind [2]?
A: no binding (tested: 20 nM)

B3: AP-Nogo-66: AP fusion protein of the Nogo-66 domain (protein)
chain: RIYKGVIQAIQKSDEGHPFRAYLESEVAISEELVQKYSNSALGHVNCTIKELRRLFLVDDLVDSLK
modifications: left off: large carriers
notes: AP fusion protein of the Nogo-66 domain
Q: With B3 as the molecule, how does the “binding to NgR2” value [3] read?
A: do not bind

Q: What about the “binding to NgR3” value [4] of the same molecule?
A: do not bind
